Here are results for one molecule from PMC6155056 (Science Advances, 2018).

Common to all, as to experiment: cryo-EM structure
Assay [1] deals with T1, CVA10 mature virion (strain CVA10-FJ-01) (Coxsackievirus A10, strain CVA10-FJ-01 …, strain).
T1 chain 1: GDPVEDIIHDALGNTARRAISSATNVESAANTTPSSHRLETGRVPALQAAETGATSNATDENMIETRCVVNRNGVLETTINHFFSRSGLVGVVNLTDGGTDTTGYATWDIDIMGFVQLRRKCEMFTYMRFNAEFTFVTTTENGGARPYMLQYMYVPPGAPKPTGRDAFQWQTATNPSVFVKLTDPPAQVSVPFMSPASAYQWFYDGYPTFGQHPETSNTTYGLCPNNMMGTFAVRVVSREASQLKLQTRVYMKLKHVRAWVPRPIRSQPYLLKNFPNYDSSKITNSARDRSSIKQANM
T1 chain 2: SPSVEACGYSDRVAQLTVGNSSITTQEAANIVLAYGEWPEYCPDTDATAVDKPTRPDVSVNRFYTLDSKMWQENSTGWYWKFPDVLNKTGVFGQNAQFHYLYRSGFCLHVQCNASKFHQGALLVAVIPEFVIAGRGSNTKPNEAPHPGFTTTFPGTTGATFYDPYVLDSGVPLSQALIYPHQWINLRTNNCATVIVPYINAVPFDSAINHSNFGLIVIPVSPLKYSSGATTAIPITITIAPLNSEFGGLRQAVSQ
T1 chain 3: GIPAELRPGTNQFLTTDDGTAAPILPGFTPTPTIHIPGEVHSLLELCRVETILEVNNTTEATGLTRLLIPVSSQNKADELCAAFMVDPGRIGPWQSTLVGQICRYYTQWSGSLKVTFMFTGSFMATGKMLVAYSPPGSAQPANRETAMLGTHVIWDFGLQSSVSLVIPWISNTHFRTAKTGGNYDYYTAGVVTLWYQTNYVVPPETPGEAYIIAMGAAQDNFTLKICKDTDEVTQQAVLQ
T1 chain 4: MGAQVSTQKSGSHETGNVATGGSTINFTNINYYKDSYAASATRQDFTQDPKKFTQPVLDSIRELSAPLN

Assay [2] concerns the target T2, CVA10 A-particle (strain CVA10-FJ-01) (Coxsackievirus A10, strain CVA10-FJ-01 …, strain).
T2 chain 1: T1 chain 1
T2 chain 2: T1 chain 2
T2 chain 3: T1 chain 3

Assay [3] deals with T3, CVA10 procapsid (strain CVA10-FJ-01) (Coxsackievirus A10, strain CVA10-FJ-01 …, strain).
T3 chain 1: T1 chain 1
T3 chain 2: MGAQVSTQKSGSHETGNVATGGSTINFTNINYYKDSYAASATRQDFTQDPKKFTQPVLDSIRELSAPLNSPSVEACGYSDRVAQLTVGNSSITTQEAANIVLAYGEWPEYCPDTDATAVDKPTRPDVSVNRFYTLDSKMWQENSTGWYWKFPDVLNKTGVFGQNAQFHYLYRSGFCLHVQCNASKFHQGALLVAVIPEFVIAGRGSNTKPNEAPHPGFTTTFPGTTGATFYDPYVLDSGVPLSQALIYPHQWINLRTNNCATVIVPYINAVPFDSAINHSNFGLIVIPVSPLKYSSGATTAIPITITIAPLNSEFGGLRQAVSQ
T3 chain 3: T1 chain 3

Assay [4] deals with T4, CVA10 capsid protein VP3 (strain CVA10-FJ-01) (Coxsackievirus A10, strain CVA10-FJ-01 …, strain).
T4 chain: T1 chain 3

For assay [5], the target named is T5, CVA10 capsid protein VP2 (strain CVA10-FJ-01) (Coxsackievirus A10, strain CVA10-FJ-01 …, strain).
T5 chain: T1 chain 2

The target in assay [6] is T6, CVA10 capsid protein VP1 (strain CVA10-FJ-01) (Coxsackievirus A10, strain CVA10-FJ-01 …, strain).
T6 chain: T1 chain 1

B1: Fab 2G8 (Fab, V domains shown)
VH: EVQLQQSGPDLVKTGASVRVSCRASGYSFTSYYIHWVRLNHGKSLEWIGYINCYNGDITYNQKFKGKASFTLDTSSSTAYMEFNRLTSEDSAVYYCTRERYGTPHYHFDVWGAGP
VL: DVLMTQTPLSLPVSLGHQASISCRSSQSIVHSNGNTYLEWYLQKPGQSPKLLIYTVSNRFSGVPDRFSGSGSGTDFTLRITSVEAEDLGVYYCFQGSHIPYTFGGGTKLEIK
By stoichiometry N is commonly meant the number of molecules, sites or subunits per partner or assembly. Regarding B1, the “stoichiometry N” value in assay [1], in assay [2] and in assay [3] was 60 copies per particle in each case. Moreover, the binding result in assay [4], in assay [5] and in assay [6] was “binds” in each case.
